This note sets out measurements from patent US20220168402A1, “PIP4Ks SUPPRESS INSULIN SIGNALING AND ENHANCE IMMUNE FUNCTION THROUGH A CATALYTIC-INDEPENDENT MECHANISM” (Cornell University, priority 2019, published 2022).

Numbering of substitutions follows the chain as printed.

Series [1] addresses PIP5K1A (purified, in vitro kinase assay) (UniProt Q99755).
The target of another series is T1, PIP5K1A (Homo sapiens, UniProt Q99755).
T1 construct: made in house; host or cells: E. coli
Put plainly: In vitro kinase assay: conversion of PI(4)P to radiolabeled PI(4,5)P2 by PIP5K1A with purified PIP4K proteins added. It counts as biochemical. Particulars: for inhibition of PIP5K1A activity (PI(4)P to PI(4,5)P2): purified proteins, PI(4)P liposomes, 2-10 fold molar excess of PIP4K. The method, then:
BL21 bacterial cells were transfected with pGEX vectors with PIP4K isoform coding sequence variants. Cells were grown in 1 L of TB at 37° at 200 rpm until 0.8 OD, at which point 500 uL of 1M IPTG was added. Cultures were shaken overnight at room temp for protein induction and pelleted at 5000 g for 15 minutes. Cells were lysed (50 mM Tris pH 7.5, 500 mM NaCl, 10 mM MgCl2, 10% glycerol, DTT, lysozyme, protein/phosphatase inhibitors), sonicated for 1 minute (output 4, continuous duty cycle) and spun down at 10,000 g for 1 hour. Supernatant was kept for further purification and cleavage according to manufacturer's protocol using glutathione sepharose beads.
Cells were trypsinized and normalized for cell number. Cell pellets, or E. coli purified proteins were resuspended in HNE buffer (20 mM HEPES pH 7.4, 100 mM NaCl, 0.5 mM EGTA), and sonicated in the presence of 32P-γ-ATP, and liposomes (10 ug PS, 1 ug PI(4)P in 30 mM HEPES pH 7.4, 1 mM EGTA). Liposome lipids were purchased from Avanti. Reactions were stopped by addition of 50 uL of 4N HCL. To extract lipids, 100 μL of MeOH:CHCl3 (1:1) was added and samples were vortexed 2×30 seconds. Samples were spun down at top speed for 2 min and the organic phase containing phosphatidylinositol lipids (bottom) were separated using thin-layer chromatography (TLC) using 1-propanol: 2N acetic acid (65:35 v/v). TLC plates were prepared ahead of time by coating with 1% Potassium Oxalate. Phosphorylated lipids were visualized by autoradiography on a GE Typhoon FLA 7000 and quantified using ImageQuant TL software.

The target of series [2] is T2, PIP5K1A (purified, in vitro kinase assay), Q99755.
T2 chain: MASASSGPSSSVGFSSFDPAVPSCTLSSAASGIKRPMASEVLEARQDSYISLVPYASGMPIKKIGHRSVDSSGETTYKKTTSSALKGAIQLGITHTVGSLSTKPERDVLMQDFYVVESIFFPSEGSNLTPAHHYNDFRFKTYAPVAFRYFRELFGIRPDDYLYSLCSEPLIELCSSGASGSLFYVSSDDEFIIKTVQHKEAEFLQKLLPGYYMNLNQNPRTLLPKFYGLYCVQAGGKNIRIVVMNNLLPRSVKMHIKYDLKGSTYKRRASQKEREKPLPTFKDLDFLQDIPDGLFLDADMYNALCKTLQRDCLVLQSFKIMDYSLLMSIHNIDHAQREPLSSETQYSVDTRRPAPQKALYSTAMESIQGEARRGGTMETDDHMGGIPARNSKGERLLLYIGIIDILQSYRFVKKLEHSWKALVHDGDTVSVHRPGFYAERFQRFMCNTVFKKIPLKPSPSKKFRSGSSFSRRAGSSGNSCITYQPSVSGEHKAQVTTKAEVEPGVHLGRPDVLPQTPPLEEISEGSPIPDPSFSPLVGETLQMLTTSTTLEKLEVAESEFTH

The target in series [3] is endogenous PIP5K1A (293T lysate) (UniProt Q99755 1-562, limits assumed). Kind of series: GST pulldown from 293T lysates with bead-bound bait, western blot (FIG. 3J). The protocol: These lysates and purified protein were incubated together at 4 degrees for 1 hour before the beads were again pelleted, washed with IP buffer three times, eluted with 2M NaCl, and analyzed by SDS PAGE and western blot.
In general terms: In western blotting, separated proteins are transferred to a membrane and probed.

On to GST-PIP4K2C 74DD to 74NN, for which the “in vitro kinase assay: conversion of PI(4)P to radiolabeled PI(4,5)P2 by PIP5K1A (FIG. 4H)” value in series [1] is listed as “Mutating 74DD to be 74NN or mutating 91REN to be 91 EED within GST-PIP4K2C did not prevent this protein from inhibiting PIP5K1A”.
Take GST-PIP4K2C 91REN to 91EED: the “in vitro kinase assay: conversion of PI(4)P to radiolabeled PI(4,5)P2 by PIP5K1A (FIG. 4H)” value in series [1] is recorded as “Mutating 74DD to be 74NN or mutating 91REN to be 91 EED within GST-PIP4K2C did not prevent this protein from inhibiting PIP5K1A”.

B1: PIP4K2B (purified) (protein)
chain: MSSNCTSTTAVAVAPLSASKTKTKKKHFVCQKVKLFRASEPILSVLMWGVNHTINELSNVPVPVMLMPDDFKAYSKIKVDNHLFNKENLPSRFKFKEYCPMVFRNLRERFGIDDQDYQNSVTRSAPINSDSQGRCGTRFLTTYDRRFVIKTVSSEDVAEMHNILKKYHQFIVECHGNTLLPQFLGMYRLTVDGVETYMVVTRNVFSHRLTVHRKYDLKGSTVAREASDKEKAKDLPTFKDNDFLNEGQKLHVGEESKKNFLEKLKRDVEFLAQLKIMDYSLLVGIHDVDRAEQEEMEVEERAEDEECENDGVGGNLLCSYGTPPDSPGNLLSFPRFFGPGEFDPSVDVYAMKSHESSPKKEVYFMAIIDILTPYDTKKKAAHAAKTVKHGAGAEISTVNPEQYSKRFNEFMSNILT
As for B1, the “inhibition of PIP5K1A activity (PI(4)P to PI(4,5)P2)” value in the series with PIP5K1A is given as “inhibited”.

B2: PIP4K2A (purified) (protein)
chain: MATPGNLGSSVLASKTKTKKKHFVAQKVKLFRASDPLLSVLMWGVNHSINELSHVQIPVMLMPDDFKAYSKIKVDNHLFNKENMPSHFKFKEYCPMVFRNLRERFGIDDQDFQNSLTRSAPLPNDSQARSGARFHTSYDKRYIIKTITSEDVAEMHNILKKYHQYIVECHGITLLPQFLGMYRLNVDGVEIYVIVTRNVFSHRLSVYRKYDLKGSTVAREASDKEKAKELPTLKDNDFINEGQKIYIDDNNKKVFLEKLKKDVEFLAQLKLMDYSLLVGIHDVERAEQEEVECEENDGEEEGESDGTHPVGTPPDSPGNTLNSSPPLAPGEFDPNIDVYGIKCHENSPRKEVYFMAIIDILTHYDAKKKAAHAAKTVKHGAGAEISTVNPEQYSKRFLDFIGHILT
For B2, the “inhibition of PIP5K1A activity in presence of detergent” value in the series with PIP5K1A (0.1% Triton-X100, no PI(4)P liposomes) is reported as “eliminated the ability of PIP4K2A to inhibit PIP5K1A”. Further, in the series with PIP5K1A, the “inhibition of PIP5K1A activity (PI(4)P to PI(4,5)P2)” value is recorded as “inhibited”.

B3: PIP4K2C (purified) (protein)
chain: MASSSVPPATVSAATAGPGPGFGFASKTKKKHFVQQKVKVFRAADPLVGVFLWGVAHSINELSQVPPPVMLLPDDFKASSKIKVNNHLFHRENLPSHFKFKEYCPQVFRNLRDRFGIDDQDYLVSLTRNPPSESEGSDGRFLISYDRTLVIKEVSSEDIADMHSNLSNYHQYIVKCHGNTLLPQFLGMYRVSVDNEDSYMLVMRNMFSHRLPVHRKYDLKGSLVSREASDKEKVKELPTLKDMDFLNKNQKVYIGEEEKKIFLEKLKRDVEFLVQLKIMDYSLLLGIHDIIRGSEPEEEAPVREDESEVDGDCSLTGPPALVGSYGTSPEGIGGYIHSHRPLGPGEFESFIDVYAIRSAEGAPQKEVYFMGLIDILTQYDAKKKAAHAAKTVKHGAGAEISTVHPEQYAKRFLDFITNIFA
As to B3, the “in vitro kinase assay: conversion of PI(4)P to radiolabeled PI(4,5)P2 by PIP5K1A (FIG. 3K)” value in series [2] is reported as “PIP5K1A, which is inhibited by PIP4K2C but not PIP4K2C^VD”.

B4: GST-PIP4K2C^VD (enzyme)
chain: B3 chain with V69E, M70I, L71F, D74N, D75N
notes: the text and the Quik-2CVD primer give EIF, which is used here; not shown: glutathione S-transferase (GST) tag from a pGEX vector
On to B4, for which the binding result in series [3] was “no binding”. Moreover, the “in vitro kinase assay: conversion of PI(4)P to radiolabeled PI(4,5)P2 by PIP5K1A (FIG. 3K)” value in series [2] is given as “PIP4K2C^VD failed to inhibit PIP5K1A activity”.
